For 2 proteins, Km results are on record in publication PMC8385062, “Deciphering ion transport and ATPase coupling in the intersubunit tunnel of KdpFABC” (Nature Communications, 2021).

Substrate in the data set: Nc1ncnc2c1ncn2[C@@H]1O[C@H](COP(=O)(O)OP(=O)(O)OP(=O)(O)O)[C@@H](O)[C@H]1O
The data set can be described thus: purified protein. The note with it: 1 mM KCl, 37 °C.

B1: KdpFABC (nucleotide / vanadate rows, site in KdpB) (Escherichia coli K-12) (protein)
chain: MSRKQLALFEPTLVVQALKEAVKKLNPQAQWRNPVMFIVWIGSLLTTCISIAMASGAMPGNALFSAAISGWLWITVLFANFAEALAEGRSKAQANSLKGVKKTAFARKLREPKYGAAADKVPADQLRKGDIVLVEAGDIIPCDGEVIEGGASVDESAITGESAPVIRESGGDFASVTGGTRILSDWLVIECSVNPGETFLDRMIAMVEGAQRRKTPNEIALTILLIALTIVFLLATATLWPFSAWGGNAVSVTVLVALLVCLIPTTIGGLLSAIGVAGMSRMLGANVIATSGRAVEAAGDVDVLLLDKTGTITLGNRQASEFIPAQGVDEKTLADAAQLASLADETPEGRSIVILAKQRFNLRERDVQSLHATFVPFTAQSRMSGINIDNRMIRKGSVDAIRRHVEANGGHFPTDVDQKVDQVARQGATPLVVVEGSRVLGVIALKDIVKGGIKERFAQLRKMGIKTVMITGDNRLTAAAIAAEAGVDDFLAEATPEAKLALIRQYQAEGRLVAMTGDGTNDAPALAQADVAVAMNSGTQAAKEAGNMVDLDSNPTKLIEVVHIGKQMLMTRGSLTTFSIANDVAKYFAIIPAAFAATYPQLNALNIMCLHSPDSAILSAVIFNALIIVFLIPLALKGVSYKPLTASAMLRRNLWIYGLGGLLVPFIGIKVIDLLLTVCGLV
For B1, the Michaelis constant (Km) stood at 150 µM.

B2: KdpFABC (nucleotide / vanadate rows, site in KdpB) (Escherichia coli K-12; F232A) (protein)
chain: MSRKQLALFEPTLVVQALKEAVKKLNPQAQWRNPVMFIVWIGSLLTTCISIAMASGAMPGNALFSAAISGWLWITVLFANFAEALAEGRSKAQANSLKGVKKTAFARKLREPKYGAAADKVPADQLRKGDIVLVEAGDIIPCDGEVIEGGASVDESAITGESAPVIRESGGDFASVTGGTRILSDWLVIECSVNPGETFLDRMIAMVEGAQRRKTPNEIALTILLIALTIVALLATATLWPFSAWGGNAVSVTVLVALLVCLIPTTIGGLLSAIGVAGMSRMLGANVIATSGRAVEAAGDVDVLLLDKTGTITLGNRQASEFIPAQGVDEKTLADAAQLASLADETPEGRSIVILAKQRFNLRERDVQSLHATFVPFTAQSRMSGINIDNRMIRKGSVDAIRRHVEANGGHFPTDVDQKVDQVARQGATPLVVVEGSRVLGVIALKDIVKGGIKERFAQLRKMGIKTVMITGDNRLTAAAIAAEAGVDDFLAEATPEAKLALIRQYQAEGRLVAMTGDGTNDAPALAQADVAVAMNSGTQAAKEAGNMVDLDSNPTKLIEVVHIGKQMLMTRGSLTTFSIANDVAKYFAIIPAAFAATYPQLNALNIMCLHSPDSAILSAVIFNALIIVFLIPLALKGVSYKPLTASAMLRRNLWIYGLGGLLVPFIGIKVIDLLLTVCGLV
As for B2, the Km (K+-uncoupled variant) was 100 µM.

One may read the Km as the concentration of substrate that gives half-maximal velocity.
